Measured values as given in US20260008840A1 (ALZPATH, published 2026).
Substitutions are numbered along the chain they refer to. One block for each binder: values may come before it.

How the values were obtained:
[1] = molecular target: T1, Tau in brain lysate samples from AD patients (human, UniProt P10636-8 2-441, limits assumed); test: Western blot of brain lysates
T1 construct: A mixture of isoforms; The phosphorylation state was not defined by the experiment; also called different length isoforms of Tau in AD samples
Description: (§1) In FIG. 26, Western blots were used to assess binding of various antibodies to brain lysate samples from AD patients and Control subjects. Protein ladders were run in lanes 1 and 10. Phosphatase treated pTau loaded in an amount of 0.05 ug was run in lane 2. Full-length Tau (Tau411) loaded in an amount of 0.05 ug was run in lane 3. Lanes 4-6 contain samples from different Control subjects with a dilution factor of 5. Lanes 7-9 contain samples from different AD subjects with a dilution factor of 5.

[2] = molecular target: T2, Tau in brain lysate samples from Control subjects (human, UniProt P10636-8 2-441, limits assumed); test: Western blot of brain lysates
T2 construct: A mixture of isoforms; also called different length isoforms of Tau in control samples
Description: as §1

Bio-pt655 (phospho T217) = test: indirect ELISA: biotinylated peptide on streptavidin plate, antibody titrated, peroxidase tracer antibody, TMB, OD450-630nm; panel 'Bio-pt655 (phospho T217)'
Description: Tau antibodies described herein that detect phosphorylated Tau were tested in ELISA assays. […] Briefly, streptavidin beads were bound to a plate and biotinylated peptide was added to the plates under conditions allowing for biotin-streptavidin binding. […] This was the target peptide. After binding of the synthetic peptide to the plate by the formation of the biotin-streptavidin complex, Tau antibodies were added to the plates under conditions allowing for antibody-target peptide binding. […] After binding, plates were washed to remove any unbound tracer antibody and plates next had TMB ELISA Peroxidase chromogenic substrate (3, 3′, 5, 5′-Tetramethylbenzidine) added to visualize antibody reactivity in indirect ELISA experiments. Antibody sample binding was quantitated using an ELISA microplate reader.
PT3 corresponds to a mouse anti-phospho (T212/T217) Tau selective antibody (Janssen Biotech Inc.). 30H10L2 corresponds to Antibody 2 described herein. 71H1L2 corresponds to Antibody 6 described herein. 62H10L7 corresponds to Antibody 5 described herein.

Adx-pt655 = test: capture ELISA: 30H10L2 bound to the plate, biotinylated peptide titrated (the concentration is that of Adx-pt655), streptavidin-peroxidase, TMB, OD450-630nm
From the text: In FIG. 25, a diagram of an assay using Antibody 2 to detect capture of particular Tau peptides is depicted. In this assay, Antibody 2 is bound to a plate and sample wells from the plate are subjected to various biotinylated peptides under conditions conducive to forming specific antibody-ligand interactions. Samples are then washes to remove excess unbound biotinylated peptide. Streptavidin beads conjugated to peroxidase and then added to the samples to allow biotin-streptavidin complexes to form on peptide bound antibodies. TMBred substrate is then added and samples are measured for colorimetric development using an ELISA plate reader. […] Antibody 5 and Antibody 6 tested by indirect ELISA under the same conditions using the same Tau peptides yielded no specific dose-dependent reactivity toward the Tau peptides tested.

T2 sequence (P10636 other isoform, or with tags, fused parts or gaps limits assumed): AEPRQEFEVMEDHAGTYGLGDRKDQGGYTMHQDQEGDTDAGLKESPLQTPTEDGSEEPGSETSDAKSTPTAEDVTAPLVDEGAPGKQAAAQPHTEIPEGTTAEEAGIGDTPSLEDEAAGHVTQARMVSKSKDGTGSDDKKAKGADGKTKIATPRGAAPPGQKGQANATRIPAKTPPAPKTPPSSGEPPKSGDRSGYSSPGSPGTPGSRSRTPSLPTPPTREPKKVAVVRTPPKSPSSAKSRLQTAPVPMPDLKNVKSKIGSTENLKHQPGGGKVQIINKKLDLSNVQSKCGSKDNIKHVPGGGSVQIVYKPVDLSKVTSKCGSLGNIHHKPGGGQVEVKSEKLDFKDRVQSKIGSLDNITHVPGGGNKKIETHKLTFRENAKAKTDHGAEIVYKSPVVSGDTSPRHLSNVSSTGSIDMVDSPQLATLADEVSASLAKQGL
T1 sequence (P10636 other isoform, or with tags, fused parts or gaps limits assumed): as above

- binding result [1]: no binding (tested: DF 5)
- binding result [2]: no binding (tested: DF 5)
B1: Antibody 6 (antibody, V domains shown)
VH: QSLEESGGRLVTPGTPLTLTCTVSGIDLSTHAMTWVRQAPGKGLEWIGVINPSGSAYYATWVNGRFTISKTSTTVDLKITSPTTGDTAKYFCARDYITAGDYYMDAFDPWGPGTLVTVSS
VL: DIVMTQTPASVSAAVGGTVTIKCQASQSISNQLSWYQQKSGQPPKLLIYRASTLASGVPSRFKGSGSGTEFTLTISDLECADAATYYCQQGYNRDNVDNLFGGGTEVVVKG
notes: also called 71H1L2

- EC50 (read off the curve) (Bio-pt655 (phospho T217)): ~0.2 µg/mL
- EC50 (read off the curve) (Adx-pt655): ~0.4 µg/mL
B2: Antibody 2 (antibody, V domains shown)
VH: QSVEESGGRLVTPGTPLTLTCTVSGFSLSSYAMIWVRQAPGKGLEWIGFISRSGITYYASWAKGRFTISKTSTTVDLKMTSLTTEDTATYFCAREFGAVGSDYYRDAFNLWGPGTLVTVSS
VL: DIVMTQTPASVEAAVGGTVTINCQASESINSWLSWYQQKPGQPPNLLIYRASTLASGVPSRFSGGGSGTEYTLTISDLECADAVTYYCQSYYEEDGIGYAFGGGTEVVVEG
notes: also called 30H10L2

- binding result [1]: no binding (tested: DF 5)
- binding result [2]: no binding (tested: DF 5)
B3: Antibody 5 (antibody, V domains shown)
VH: B2 VH with R9G, T15G, P16T, S30N, I34S, M79I, L82P, T89A, F108L, N109R
VL: DIVMTQTPSSVSAAVGGTVTIKCQASQSIGSNLAWYQQKPGQPPKLLIYGASTLESGVPSRFKGSGSGTEYTLTISDLECADAATYYCQSYYEGSDIGYAFGGGTEVVVEG
notes: also called 62H10L7
